From PMC8012654 come the findings set out here.

The assay addresses recombinant GST-αII spectrin peptide, codons 891-1231 (repeats 9 and 10), R1098Q (mouse) (UniProt P16546). Description: SPR; BIAcore T200, CM5 chip; GST-spectrin peptides captured by their GST tag on amine-coupled goat anti-GST antibody to 1,000 RU; CaM 20 nM to 500 nM flowed in HBS running buffer with 2 mM CaCl2; 25 °C, 20 µl/min; global fit, 1:1 Langmuir model with mass transport step; KD = kd/ka. (Surface plasmon resonance follows binding to a sensor surface in real time, without labels.)

Regarding “purified bovine brain calmodulin (CaM) (from UniProt P62157 1-149) (natural protein)”, the reduction in affinity for CaM relative to the WT peptide was determined as 19%.
